Reference: article PMC8592984 (2021)
Like-named read-outs stand apart in the source and are kept apart here.

Key:
Test in all cases: SPR
Tau 441 P301S = Tau 441 P301S (human, UniProt P10636-8 1-441, P301S)
[1] = biological target: T1, human Tau 441 full-length protein (4R tau), SPR construct (human, UniProt P10636-8 1-441)
Tau 410 P179A = Tau 410 P179A (human, UniProt P10636-5 1-410, P179A)
Tau 410 P179A/P216A = Tau 410 P179A/P216A (human, UniProt P10636-5 1-410, P179A | P216A)
[2] = biological target: T1, human Tau 441 full-length protein (4R …); remark: listed apart in the source
[3] = biological target: human Tau 410 full-length protein (3R tau), SPR construct (human, UniProt P10636-5 1-410)
Tau 410 P216A = Tau 410 P216A (human, UniProt P10636-5 1-410, P216A)
Chain of Tau 410 P216A (P10636 other isoform, or with tags, fused parts or gaps P216A | P216A): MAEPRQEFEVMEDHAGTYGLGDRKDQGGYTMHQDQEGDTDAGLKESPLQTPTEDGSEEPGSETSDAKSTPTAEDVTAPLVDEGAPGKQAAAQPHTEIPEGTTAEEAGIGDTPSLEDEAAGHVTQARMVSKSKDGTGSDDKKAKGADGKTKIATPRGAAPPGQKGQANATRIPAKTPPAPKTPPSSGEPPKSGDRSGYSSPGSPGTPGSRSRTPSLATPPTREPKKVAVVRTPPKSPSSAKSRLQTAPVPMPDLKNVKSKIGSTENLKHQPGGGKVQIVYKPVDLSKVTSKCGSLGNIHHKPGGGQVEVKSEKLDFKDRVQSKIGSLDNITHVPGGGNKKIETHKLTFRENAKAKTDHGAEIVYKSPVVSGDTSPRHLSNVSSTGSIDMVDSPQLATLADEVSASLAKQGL

T1 sequence (P10636 other isoform, or with tags, fused parts or gaps): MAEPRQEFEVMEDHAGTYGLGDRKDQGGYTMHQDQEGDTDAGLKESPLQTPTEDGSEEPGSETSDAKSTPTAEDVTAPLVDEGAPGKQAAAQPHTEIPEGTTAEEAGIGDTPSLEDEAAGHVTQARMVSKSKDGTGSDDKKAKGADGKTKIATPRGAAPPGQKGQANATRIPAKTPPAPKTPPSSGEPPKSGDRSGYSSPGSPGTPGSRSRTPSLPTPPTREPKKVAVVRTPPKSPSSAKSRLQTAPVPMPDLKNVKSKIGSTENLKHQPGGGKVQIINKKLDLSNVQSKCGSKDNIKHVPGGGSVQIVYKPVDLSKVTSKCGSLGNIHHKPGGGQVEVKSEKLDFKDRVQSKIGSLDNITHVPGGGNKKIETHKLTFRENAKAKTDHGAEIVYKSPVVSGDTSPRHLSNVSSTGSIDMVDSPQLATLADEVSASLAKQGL
Chain of Tau 410 P179A (P10636 other isoform, or with tags, fused parts or gaps P179A | P179A): as the sequence (P10636 other isoform, or with tags, fused parts or gaps P216A | P216A) above, with P179A, A216P counted along it
Chain of Tau 441 P301S (P10636 other isoform, or with tags, fused parts or gaps P301S | P301S): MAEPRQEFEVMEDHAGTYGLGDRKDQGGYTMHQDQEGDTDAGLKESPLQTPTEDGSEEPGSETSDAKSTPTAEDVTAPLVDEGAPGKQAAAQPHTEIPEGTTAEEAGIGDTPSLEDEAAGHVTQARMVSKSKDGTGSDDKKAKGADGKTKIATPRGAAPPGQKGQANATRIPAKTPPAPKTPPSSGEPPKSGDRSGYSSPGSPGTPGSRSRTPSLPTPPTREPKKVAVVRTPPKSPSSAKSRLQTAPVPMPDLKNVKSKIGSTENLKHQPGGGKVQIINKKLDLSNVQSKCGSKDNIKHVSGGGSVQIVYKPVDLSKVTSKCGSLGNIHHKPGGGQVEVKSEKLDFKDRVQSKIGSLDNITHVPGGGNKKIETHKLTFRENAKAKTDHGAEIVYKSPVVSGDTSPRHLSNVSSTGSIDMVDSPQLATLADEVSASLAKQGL
Chain of human Tau 410 full-length protein (3R tau), SPR construct (P10636 other isoform, or with tags, fused parts or gaps): as the sequence (P10636 other isoform, or with tags, fused parts or gaps P216A | P216A) above, with A216P counted along it
Chain of Tau 410 P179A/P216A (P10636 other isoform, or with tags, fused parts or gaps P179A | P216A | P179A P216A): as the sequence (P10636 other isoform, or with tags, fused parts or gaps P216A | P216A) above, with P179A counted along it

Row | Kd (Tau 441 P301S) | Kd [1] | Kd (Tau 410 P179A) | Kd (Tau 410 P179A/P216A) | Kd [2] | Kd [3] | Kd (Tau 410 P216A) | Binder
1 | 51.5 nM | 42.1 nM | 4820 nM | 26000 nM | 12.2 nM | 43.3 nM | 314 nM | human PQBP1 full-length form (PQBP1-FL) (natural protein) MPLPVALQTRLAKRGILKHLEPEPEEEIIAEDYDDDPVDYEATRLEGLPPSWYKVFDPSCGLPYYWNADTDLVSWLSPHDPNSVVTKSAKKLRSSNADAEEKLDRSHDKSDRGHDKSDRSHEKLDRGHDKSDRGHDKSDRDRERGYDKVDRERERDRERDRDRGYDKADREEGKERRHHRREELAPYPKSKKAVSRKDEELDPMDPSSYSDAPRGTWSTGLPKRNEAKTGADTTAAGPLFQQRPYPSPGAVLRANAEASRTKQQD
2 | 46.2 nM | 54.7 nM | 6340 nM | 73300 nM | 11 nM | 76.9 nM | 445 nM | human PQBP1(1–94) including WWD (domain or fragment) MPLPVALQTRLAKRGILKHLEPEPEEEIIAEDYDDDPVDYEATRLEGLPPSWYKVFDPSCGLPYYWNADTDLVSWLSPHDPNSVVTKSAKKLRS
